Patent WO2016171242A1 (dated 2016)

Tests used:
Assay in all cases: flow cytometry on transfected 293F cells
[1] = target: T1, human EPHB3 without signal sequence, FLAG-tagged, expressed from pFLAG-EPHB3 (human, UniProt P54753 38-998)
T1 construct: not shown: FLAG tag supplied by the vector pFLAG-GW
T1 sequence: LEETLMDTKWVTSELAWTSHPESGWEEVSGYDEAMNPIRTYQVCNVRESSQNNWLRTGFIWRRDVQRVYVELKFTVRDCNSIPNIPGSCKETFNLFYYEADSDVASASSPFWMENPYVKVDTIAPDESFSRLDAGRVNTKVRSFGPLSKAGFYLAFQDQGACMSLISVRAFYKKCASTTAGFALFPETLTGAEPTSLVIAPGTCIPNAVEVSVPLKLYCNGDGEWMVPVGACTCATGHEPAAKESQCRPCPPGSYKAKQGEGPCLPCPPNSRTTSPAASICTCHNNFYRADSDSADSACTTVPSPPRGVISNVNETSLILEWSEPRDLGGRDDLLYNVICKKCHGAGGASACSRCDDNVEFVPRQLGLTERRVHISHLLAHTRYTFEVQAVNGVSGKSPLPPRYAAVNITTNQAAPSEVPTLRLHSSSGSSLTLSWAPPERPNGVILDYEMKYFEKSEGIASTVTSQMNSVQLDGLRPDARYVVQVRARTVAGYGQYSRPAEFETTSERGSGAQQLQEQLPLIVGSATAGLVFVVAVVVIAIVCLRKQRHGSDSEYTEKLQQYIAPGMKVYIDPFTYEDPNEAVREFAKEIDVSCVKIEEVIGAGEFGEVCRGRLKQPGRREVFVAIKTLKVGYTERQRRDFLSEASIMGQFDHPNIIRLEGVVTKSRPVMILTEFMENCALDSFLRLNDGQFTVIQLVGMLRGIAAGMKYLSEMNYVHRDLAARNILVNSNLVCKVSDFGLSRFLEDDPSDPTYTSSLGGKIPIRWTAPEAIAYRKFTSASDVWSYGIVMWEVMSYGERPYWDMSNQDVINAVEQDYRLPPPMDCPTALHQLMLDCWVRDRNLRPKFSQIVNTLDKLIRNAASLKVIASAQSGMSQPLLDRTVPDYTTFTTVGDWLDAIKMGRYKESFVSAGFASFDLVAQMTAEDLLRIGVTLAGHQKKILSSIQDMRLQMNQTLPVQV

[2] = target: T2, human PTPRS isoform 2 without signal sequence, FLAG-tagged, expressed from pFLAG-PTPRS-2 (human, UniProt Q13332 30-1948)
T2 construct: not shown: FLAG tag supplied by the vector pFLAG-GW

[3] = target: T3, human PTPRS isoform 4 without signal sequence, FLAG-tagged, expressed from pFLAG-PTPRS-4 (human, UniProt Q13332 30-1948)
T3 construct: not shown: FLAG tag supplied by the vector pFLAG-GW
T3 sequence: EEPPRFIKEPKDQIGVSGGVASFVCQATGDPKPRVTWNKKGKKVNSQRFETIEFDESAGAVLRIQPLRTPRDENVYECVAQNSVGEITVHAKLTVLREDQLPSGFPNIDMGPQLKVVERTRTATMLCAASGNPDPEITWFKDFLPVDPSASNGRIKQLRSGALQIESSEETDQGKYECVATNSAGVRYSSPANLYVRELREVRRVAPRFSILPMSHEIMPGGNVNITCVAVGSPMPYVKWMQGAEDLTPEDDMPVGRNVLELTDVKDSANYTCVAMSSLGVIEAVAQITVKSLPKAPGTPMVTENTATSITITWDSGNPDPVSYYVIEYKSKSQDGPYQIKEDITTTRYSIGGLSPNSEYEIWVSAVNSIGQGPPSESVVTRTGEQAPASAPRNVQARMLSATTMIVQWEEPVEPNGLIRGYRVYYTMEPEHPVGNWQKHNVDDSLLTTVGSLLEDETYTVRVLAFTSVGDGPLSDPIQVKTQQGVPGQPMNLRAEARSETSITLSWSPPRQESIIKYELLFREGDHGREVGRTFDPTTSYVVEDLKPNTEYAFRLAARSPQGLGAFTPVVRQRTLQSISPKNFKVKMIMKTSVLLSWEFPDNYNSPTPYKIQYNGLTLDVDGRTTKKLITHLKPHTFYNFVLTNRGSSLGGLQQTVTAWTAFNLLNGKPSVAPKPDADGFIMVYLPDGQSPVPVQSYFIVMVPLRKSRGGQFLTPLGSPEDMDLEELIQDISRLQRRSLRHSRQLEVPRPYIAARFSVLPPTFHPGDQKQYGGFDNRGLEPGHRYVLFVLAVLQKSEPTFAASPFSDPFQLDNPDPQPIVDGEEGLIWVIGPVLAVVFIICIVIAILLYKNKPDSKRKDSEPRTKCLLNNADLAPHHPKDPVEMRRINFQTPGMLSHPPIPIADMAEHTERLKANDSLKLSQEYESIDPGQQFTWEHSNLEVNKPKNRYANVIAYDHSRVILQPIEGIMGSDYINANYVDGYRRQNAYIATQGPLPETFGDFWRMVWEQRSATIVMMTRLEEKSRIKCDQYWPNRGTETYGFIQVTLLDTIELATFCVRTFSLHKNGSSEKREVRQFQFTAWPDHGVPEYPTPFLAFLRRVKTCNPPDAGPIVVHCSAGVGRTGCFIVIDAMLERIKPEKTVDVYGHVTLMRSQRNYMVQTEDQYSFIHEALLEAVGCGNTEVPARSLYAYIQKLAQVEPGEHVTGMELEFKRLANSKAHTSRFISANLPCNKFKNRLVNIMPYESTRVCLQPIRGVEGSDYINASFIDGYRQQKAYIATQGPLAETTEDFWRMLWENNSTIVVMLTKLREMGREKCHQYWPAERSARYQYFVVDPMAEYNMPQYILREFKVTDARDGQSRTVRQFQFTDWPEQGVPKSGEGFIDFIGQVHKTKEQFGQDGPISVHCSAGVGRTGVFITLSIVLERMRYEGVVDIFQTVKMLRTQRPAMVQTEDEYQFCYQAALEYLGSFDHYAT

[4] = target: T4, human EPHA7 without signal sequence, FLAG-tagged, expressed from pFLAG-EPHA7 (human, UniProt Q15375 28-998)
T4 construct: not shown: FLAG tag supplied by the vector pFLAG-GW

Measured: binding result

T4 sequence (Q15375 28-998): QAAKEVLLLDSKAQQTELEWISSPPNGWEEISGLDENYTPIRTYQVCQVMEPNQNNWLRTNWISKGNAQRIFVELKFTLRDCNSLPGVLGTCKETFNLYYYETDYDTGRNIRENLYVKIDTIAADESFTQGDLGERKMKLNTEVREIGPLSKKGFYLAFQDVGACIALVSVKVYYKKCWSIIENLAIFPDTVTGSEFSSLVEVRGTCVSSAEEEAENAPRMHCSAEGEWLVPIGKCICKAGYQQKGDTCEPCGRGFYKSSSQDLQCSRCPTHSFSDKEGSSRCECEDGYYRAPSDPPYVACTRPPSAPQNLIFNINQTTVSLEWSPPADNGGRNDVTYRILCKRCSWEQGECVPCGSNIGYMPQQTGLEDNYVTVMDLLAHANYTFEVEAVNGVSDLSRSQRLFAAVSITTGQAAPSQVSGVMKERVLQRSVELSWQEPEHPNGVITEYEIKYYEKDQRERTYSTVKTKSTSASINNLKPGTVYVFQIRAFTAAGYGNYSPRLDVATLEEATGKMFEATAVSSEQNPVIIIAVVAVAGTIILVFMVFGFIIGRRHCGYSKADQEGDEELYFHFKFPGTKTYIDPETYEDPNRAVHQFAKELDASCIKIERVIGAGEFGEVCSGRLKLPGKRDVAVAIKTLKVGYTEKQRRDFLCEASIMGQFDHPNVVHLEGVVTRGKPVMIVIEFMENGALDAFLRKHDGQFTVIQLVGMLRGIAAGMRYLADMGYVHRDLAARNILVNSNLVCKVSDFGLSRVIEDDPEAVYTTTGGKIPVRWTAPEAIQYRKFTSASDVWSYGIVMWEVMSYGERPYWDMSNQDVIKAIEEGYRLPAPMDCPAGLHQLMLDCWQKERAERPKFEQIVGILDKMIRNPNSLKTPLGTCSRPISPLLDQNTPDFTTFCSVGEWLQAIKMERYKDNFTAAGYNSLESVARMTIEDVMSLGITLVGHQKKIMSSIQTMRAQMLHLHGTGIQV

B1: mouse anti-human EPHA2 antibody A205 (antibody, V domains shown)
VH: QIQLVQSGPELKKPGETVKISCKASGYTFTDYSMNWVKQAPGKGLKWMGWINTYTGEPTYADDFKGRFAFSLETSASTAYLQINNLKNEDTATYFCASPISLLRLLDYWGQGTTLTVSS
VL: DVVMTQTPLSLPVSLGDQASIPCRSSQSLVHSNGNTYLHWYLQKPGQSPKLLIYKVSNRFSGVPDRFSGSGSGTDFTLKISRVEAEDLGVYFCSQSTHVPWTFGGGTKLEIKR
notes: Mouse monoclonal antibody purified from hybridoma supernatant, isotype IgG2b; also called A205 antibody
no binding: [1] | [2] | [3] | [4]

B2: mouse anti-human EPHA2 antibody A201 (antibody, V domains shown)
VH: EVQLQQSGAELVKPGASVKLSCTVSGFTFKDTYVHWVKQRPEQGLEWIGRIDPANANTKYDPKFQGKASITADTSSNTAYLQLSSLPSEDTAVYYCAAYGKSAWFAYWGQGTLVTVSA
VL: DIQMTQTTSSLSASLGDRVTISCRASQDIGNYLNWYQQKPDGTVKVLIYYTSRLHSGVPSRFSGSGSGTDYSLTISNLEQEDIATYFCQQGHSLPPTFGGGTKLEIKR
notes: Mouse monoclonal antibody purified from hybridoma supernatant, isotype IgG1; also called A201 antibody
no binding: [1] | [2] | [3] | [4]
